B1: mAB4: rabbit anti-PFOA monoclonal antibody, heavy chain variable SEQ ID NO: 18, light chain variable SEQ ID NO: 23 (antibody, listed as Oryctolagus cuniculus, V domains shown)
VH: QEQLEESRGGLIKPTDTLTLTCTASGFSLSNYGINWVRQAPGEGLEWIGAIRGSGFIYYATWAKSRSTITRNTNLNTVTLKMTSLTAADTATYFCARRDGLYSAMDPWGPGTLVTVSS
VL: DPVLTQTPSSTSAAVGGTVTISCQSSDSVYKNNYLAWFQQKPGQPPKVLIYHASKLASGVPSRFSGSGSGTQFTLTISGVQCDDAATYYCLGEYSDTHVFGGGTEVVVKG
B2: mAB1: rabbit anti-PFOA monoclonal antibody, heavy chain variable SEQ ID NO: 15, light chain variable SEQ ID NO: 20 (antibody, listed as Oryctolagus cuniculus, V domains shown)
VH: QSVKESEGGLFKPTDTLTLTCTASGFSLSSYGVSWVRQAPGNGLEWIGSIEDGGSAYYASWAKSRSTITSNTNLNTVTLQMTSLTAADTATYFCGSLSIGSAYPGIWGPGTLVTVSS
VL: AIVMTQTPSSKSVPVGDTVTIKCQASQSIGTRLAWFQQKPGQPPKRLIYSASTLASGVPSRFSGSGSGTQFTLTISDVVCDDAAAYYCGGYKSSSSDGIAFGGGTEVVVKG
B3: mAB2: rabbit anti-PFOA monoclonal antibody, heavy chain variable SEQ ID NO: 16, light chain variable SEQ ID NO: 21 (antibody, listed as Oryctolagus cuniculus, V domains shown)
VH: QSVKESEGGLFKPTDNLTLTCAVSRFSLSSYGVSWVRQAPGNGLEWIGYIYTDGSAYYASWAKSRSTITRNTNLNTVTLKMTSLTAADTATYFCARHSSGWGIDYFNVWGPGTLVTVSS
VL: AAVLTQTPSSVSAAVGGTVTINCQASQSVYNNNYLSWYQQKPGQPPKLLIYLASTLASGVPSRFSGSGSGTEFTLTISDLECDDGATYYCAGGVTSSDRPFGGGTEVVVKG
B4: mAB3: rabbit anti-PFOA monoclonal antibody, heavy chain variable SEQ ID NO: 17, light chain variable SEQ ID NO: 22 (antibody, listed as Oryctolagus cuniculus, V domains shown)
VH: QSLEESEGGLFKPGGTLTLTCTVSGFSLNIYSISWVRQAPGKELEWIGTMSNVDATYYANWAKSRSTITRNINESTVTLKMPSLTVADTATYFCARYIYGAGYDIWGPGTLVTVSS
VL: ADIVMTQTPASVEAAVGGTVTIKCQASQSISSWLSWYQQKPGQPPKLLIYKASTLASGVPSRFKGSGSGTEYTLTISGVQCADAATYYCQSVYYSSSTNYGNTFGGGTEVVVKG
B5: mAB5: rabbit anti-PFOA monoclonal antibody, heavy chain variable SEQ ID NO: 19, light chain variable SEQ ID NO: 24 (antibody, listed as Oryctolagus cuniculus, V domains shown)
VH: QSVKESEGGLFKPTDTLTLTCTASGFSLSSYGVIWVRQAPGKGLQWIGFINIYGTPSYASWAMGRSTITGNTNLNTVILKMTSLTVADTATYFCASSVGSDGYLYSSDIWGPGTLVTVSS
VL: DPVLTQTPSSVSAAVGGTVTINCQASQSVYNNKCLAWYQQKPGQPPKLLIYGASTLASGVPSRFSGSGSGTQFTLTISDLECDDAATYYCAGGYYSEIHFGGGTEVVVKG

How the values were obtained:
[1] = Indirect ELISA on microplates coated with BSA-PFOA conjugate; format: binding; settings: for binding affinity to BSA-PFOA: indirect ELISA, various antibody dilutions; for response to BSA-PFOA at 1:50,000 dilution: antibody dilution 1:50,000
Description: Polyclonal rabbit antibodies to PFOA were prepared according to methods well known in the art. E. Harlow & D. Lane, Antibodies: A Laboratory Manual (1988) (published by Cold Spring Harbor Press, Cold Spring Harbor, N.Y.). These polyclonal antibodies were tested for their binding affinity to PFOA (FIG. 1A). PFOA was conjugated to bovine serum albumin by methods well known in the art. G.T. Hermanson, Bioconjugate Techniques (Academic Press, 785 pp., 1995). S.S. Wong, Chemistry of Protein Conjugation and Cross-Linking (CRC Press, 340 pp., 1991); G.T. Hermanson et al., Immobilized Affinity Ligand Techniques (Academic Press, 450 pp., 1992). Microplates were treated with BSA-PFOA conjugate and incubated. After washing with buffer, blocking solution was added followed by varying dilutions of monoclonal antibodies (mABs). The plate was then further incubated. After washing again, anti-rabbit secondary antibodies were added. A color reaction was developed using tetramethyl benzidine (TMB), and the reaction was read at 450 nm.
The results were consistent over various antibody dilutions.

[2] = Competitive ELISA, binding affinity to other PFAS compounds
Description: (§1) Microplates were treated with anti-PFOA mABs. After incubation, the wells were exposed to a biotin-PFOA conjugate and free PFOA compounds, which compete for a finite number of antibody recognition sites. Next, streptavidin-HRP conjugate was added, which binds to the biotin-PFOA molecules. The resultant color reaction was measured spectrophotometrically. P. Langer et al., 78 Proc. Nat'l Acad. Sci USA 6633-37 (1981); A. Forster et al., 13 Nucleic Acids Res. 745-61 (1985); L. Riley et al., 5 DNA 333-37 (1986); M.D. Savage et al., Avidin-Biotin Chemistry: A Handbook (Pierce Chemical Co., 467 pp., 1992). The amount of signal was inversely proportional to the concentration of free-PFOA provided. This approach determined the dynamic range of antibody detection.
The mAB3 produced in vitro was also tested for its binding affinity to other PFAS compounds, including PFOS, PFHxS, and PFBA.

[3] = Competitive ELISA, specificity of binding to PFOA compared with octanoic acid; settings: FIG. 5
Description: as §1
Antibodies mAB3 and mAB5 were also tested for specificity of binding to PFOA as compared to known analogs, such as OA.

[4] = Surface plasmon resonance, antibody on CM5 sensor chip; format: binding; settings: for SPR signal with PFOA: PFOA between 41 ppm and 41 ppb; for type of SPR binding interaction: instant association and dissociation curve
Excerpt: Surface plasmon resonance occurs when a directed light at a specific angle of incidence excites electrons in a thin metal sheet. As a result, the electrons travel parallel to the sheet. This is related to the refractive index of the material. Even a small change alters the response, allowing SPR to be used as a techniques for detection of physical interactions between analytes. […] In this example, the antibody is bound to a sensor chip that carries a matrix of carboxymethylated dextran covalently attached to a gold surface. In this example, the chip is a CM5 sensor chip.
mAb3 (FIG. 11) and mAB5 (FIG. 12) were tested for binding with different concentrations of PFOA ([…], 10 μM, 1 μM, 0.1 μM). The concentration of PFOA tested was between ˜41 ppm and 41 ppb.

[5] = Competitive ELISA, conjugated PFOA versus free PFOA; format: binding; settings: for lowest PFOA concentration detected: synthetic matrix under laboratory conditions
Description: as §1
Antibodies mAB3 and mAB5 were then tested for dose response to PFOA using the competitive ELISA described in FIG. 1B. The assay was performed using two carrier molecules: (1) biotin (small carrier), and (2) horse radish peroxidase (HRP; large carrier). […] Also observed was the dynamic response of the assay to 0.5 ppb (500 ppt) of PFOA.
A plasmid containing the sequence for antibody mAB3 was expressed in Expi293 cells, and the resulting antibody was purified using Protein A and gel filtration chromatography, as is well known in the art. This antibody was tested for its binding affinity to PFOA using the competitive ELISA described in FIG. 1B.

[6] = Waveguide interferometry, antibody coupled to waveguide surface; format: binding; settings: groundwater from a contaminated site, approximately 7.5 ppb PFOA, compared with 2 ppb PFOA signal
Description: The device combines two very sensitive methods, waveguiding and interferometry, to form waveguide interferometry technology used in rapid low-level detection sensing applications. In optical interferometry, small changes in refractive index are measured along the pathway of an optical beam of light during its propagation. As the light propagates, it generates an optical electromagnetic field, a small fraction of which-known as the evanescent field-enables detection by interacting with the changes in refractive index occurring on the waveguide cover layer. […] As PFAS is introduced to the functionalized waveguide, PFAS binding to the antibody displaces the sample solution near the waveguide surface, changing the light beam's velocity. Simultaneously, an adjacent reference beam is left unperturbed and is optically combined with the sensing beam to measure the velocity change. This creates an interference pattern that shifts as the refractive index changes, producing a corresponding change in the relative phase measurement.
Binding of PFAS binding proteins to PFAS was tested using interferometry. Specifically, binding of anti-PFOA antibody mAB5 to PFOA was measured by comparing the interferometry signal for a 1% methanol PBS buffer containing either 0 ppb PFOA (negative control; FIG. 14A) or 2 ppb PFOA (test sample; FIG. 14B). […]

Molecule	binding affinity to BSA-PFOA [1]	response to BSA-PFOA at 1:50,000 dilution [1]	SPR signal with PFOA [4]	type of SPR binding interaction [4]	lowest PFOA concentration detected [5] [ppb]	other results
B1	no significant binding affinity	–	–	–	–	–
B2	no significant binding affinity	–	–	–	–	–
B3	no significant binding affinity	–	–	–	–	–
B4	best binding affinity	very depressed	concentration dependent signal	steady-state interaction	0.5	response to BSA-PFOA at 1:25,000 dilution compared with 1:5,000 ([1]; antibody dilution 1:25,000 vs 1:5,000): approximately four-fold lower; binding to PFOS and other PFAS compounds in addition to PFOA ([2]; FIG. 9): can bind; binding affinity to PFOS as compared to PFOA ([2]; purified antibody produced in vitro): 99%; affinity to OA as compared to PFOA [3]: six-fold lower; binding affinity to PFOA ([5]; antibody expressed in Expi293 cells, purified using Protein A and gel filtration chromatography): about 1 ppt; binding affinity to PFOA ([5]; antibody isolated from rabbit serum): about 500 ppt
B5	best binding affinity	negligible	concentration dependent signal	steady-state interaction	0.5	interferometry signal in groundwater [6]: consistent and approximately proportional to the concentration of PFOA; response to PFOA versus OA [3]: 78 fold

Source: patent US20250369960A1, “PER- AND POLYFLUORINATED ALKYL COMPOUND (PFAS) BINDING PROTEINS AND USES THEREOF” (Allonnia, LLC, priority 2022, published 2025)
